Measurements published in patent US11325952B2, “Light-gated signaling modulation” (Korea University Research and Business Foundation, priority 2016, dated 2022).

B1: BLITz-1: AsLOV2 Jα-helix C-terminal deletion variant with inserted TEV cleavage sequence, in TM-CIBN-TEV-N-AsLOV2-TEVseq-tTA fusion protein (protein)
chain: EFLATTLERIEKNFVITDPRLPDNPIIFASDSFLQLTEYSREEILGRNCRFLQGPETDRATVRKIRDAIDNQTEVTVQLINYTKSGKKFWNVFHLQPMRDYKGDVQYFIGVQLDGTERLHGAAEREAVCLIKKTAFQIA
modifications: BLITz-1 AsLOV2 (1-139 A.A.)
B2: BLITz-6: AsLOV2 Jα-helix C-terminal deletion variant with TEVseq; selected for the neuromodulation mapping system (protein)
chain: EFLATTLERIEKNFVITDPRLPDNPIIFASDSFLQLTEYSREEILGRNCRFLQGPETDRATVRKIRDAIDNQTEVTVQLINYTKSGKKFWNVFHLQPMRDYKGDVQYFIGVQLDGTERLHGAAEREAVCLIKKTAFQI
modifications: BLITz-6 AsLOV2 (1-138 A.A.)

Key:
[1] = system: cortical slice culture; assay: Cal-Light test in cortical slice culture (EGFP reporter); type: cell-based; settings: further increase of neuronal activity by bicuculine application
Source text: FIG. 18. Cal-Light test in cortical slice culture. AAV expressing Cal-Light constructs and EGFP reporter were infected to cortical slice culture at DIV3 (Days in vitro). […] Examples of action potentials were plotted at the top left panel. Electrical stimulation reliably triggered action potentials measured in layer 2/3 pyramidal neurons. Two days later, slices were fixed and images were taken by confocal microscopy. […] Blue light or high frequency stimuli alone was not able to increase the level of EGFP expression.
[…] Cortical slice culture were made at postnatal day 3 and AAV expressing Cal-Light constructs including an EGFP reporter were infected to slices at DIV 3 (Days in vitro). After 12 days of expression, a bipolar stimulation electrode was placed in layer 2/3. […] This stimulation protocol was repeated 30 times, resulting in triggering about 300 action potentials in total. Two days later, slices were fixed and gene expression pattern was imaged by confocal microscopy.

[2] = system: hippocampal culture neurons; assay: Cal-Light test in dissociated hippocampal culture neurons (EGFP reporter); type: cell-based, rat
[3] = system: HEK293T cells; assay: SEAP chemiluminescent assay of BLITz constructs, light-induced gene expression; type: cell-based; settings: for light-induced gene expression: blue light; for background (baseline) gene expression level: dark state
Procedure: HEK293T cells were grown in high glucose Dulbecco's Modified Eagle Medium (DMEM) (Gibco, CA, USA) containing 10% fetal bovine serum (Cat #10438-018, Gibco) and 1% penicillin-streptomycin (Invitrogen, NY, USA). Cells were incubated at 37° C. and under 10% CO2 conditions. For the experiment, all dishes and coverslip were pre-coated with a 1 mg/ml Poly-D-Lysine hydrobromide (Cat #P0899, Sigma-Aldrich, St. Louis, Mo., USA) solution for 2 hrs. After 0.25% trypsin (Cat #25200, Gibco) treatment for 2 min, detached cells were collected and the total cell numbers were counted. Dissociated cells were plated at 2×10^5 cells per 12 mm coverslip. 24 hrs later, DNA plasmid vectors were transfected using the calcium phosphate transfection kit (Clontech, CA, USA). The mixture of the DNA solution was slowly added into 2× Hepes Buffered Saline. After 1 hr incubation, precipitated solutions were added into each well.
Blue light was illuminated by 465 nm wavelength blue LED array (LED wholesalers, Hayward, Calif., USA) that was controlled by a high-accuracy digital electronic timer (Model 451, GraLab, Centerville, Ohio, USA). The LED array was installed inside the 37° C. and 10% CO2 incubator. One transparent blank plate with 2 cm height was inserted between the LED source and the sample to inhibit potential undesirable heating caused by the direct contact of the LED. In the experimental setup, the power of blue light at the specimen was 1.7 mW, measured by a power meter (PM100D, ThorLabs, Newton, N.J., USA). To make a dark condition, all lights were prevented by wrapping culture plates with an aluminum foil, and all experimental procedures were carried out under dim red light.
For the quantification of gene-expression levels, a secreted embryonic alkaline phosphatase (SEAP) chemiluminescent assay was used. All reagents for the SEAP assay were purchased from InvivoGen (San Diego, Calif., USA). 40 μl of sample was collected from the medium of each well and transferred into 96-wells plate. Samples were pre-heated in a 60° C. incubator for 10 m to inhibit the activity of endogenous alkaline phosphatase. All mixtures were added into a single master tube including SEAP substrates and L-homoarginine. The mixed solutions were carefully added into each sample onto 96-wells plate without bubbles. The chemiluminescence of each sample was measured by a micro-plate reader (SpectraMax Plus 384, Molecular Devices, Sunnyvale, Calif., USA) at 37° C. at 405 nm. Assays were made at every 30 s for 2 hrs. All data and the calculation of Vmax were acquired by a SoftMax Pro 5.4.1 (Molecular Devices).
Thus, to prevent access by TEV protease in the dark state, but to allow complete access upon blue light illumination, the C-terminal region of the Jα-helix on AsLOV2 with the TEVseq was modified (FIG. 1a, b). […]

[4] = system: HEK293T cells; assay: EGFP expression reporter assay of BLITz constructs; type: cell-based; settings: dark vs blue light
Source text: FIG. 1: Development of BLITz system. (a) Schematic drawing of BLITz proteins and simple diagram of light-induced gene expression. The major protein body, TM-CIBN-TEV-N-AsLOV2-TEVseq-TetR-VP16 (tTA), is targeted to a membrane with a transmembrane domain (TM). CRY2PHR-TEV-C is localized in the cytosol. Blue light causes interaction of CRY2PHR with CIBN, and TEV-C and TEV-N subsequently interact with each other. At the same time, TEVseq is unmasked due to conformational changes of AsLOV2 Jα-helix. When these two light-dependent processes are satisfied, TEVseq cleaves TetR-VP16, which translocates to the nucleus and causes targeted gene expression. (b) Design of TEVseq insertion into Jα-helix. […]
HEK293T cells were grown in high glucose Dulbecco's Modified Eagle Medium (DMEM) (Gibco, CA, USA) containing 10% fetal bovine serum (Cat #10438-018, Gibco) and 1% penicillin-streptomycin (Invitrogen, NY, USA). […] After 0.25% trypsin (Cat #25200, Gibco) treatment for 2 min, detached cells were collected and the total cell numbers were counted. […]
Blue light was illuminated by 465 nm wavelength blue LED array (LED wholesalers, Hayward, Calif., USA) that was controlled by a high-accuracy digital electronic timer (Model 451, GraLab, Centerville, Ohio, USA). […] In the experimental setup, the power of blue light at the specimen was 1.7 mW, measured by a power meter (PM100D, ThorLabs, Newton, N.J., USA). […]

Molecule | EGFP expression [1] | reporter EGFP gene expression level [2] | light-induced gene expression [3] | background (baseline) gene expression level [3] | EGFP signals [4]
CN1CCc2cc3c(cc2[C@H]1[C@@H]1OC(=O)c2c1ccc1c2OCO1)OCO3 [bicuculine] | significant increase | – | – | – | –
NC1=N[C@H](O)[C@H]2[C@H]3O[C@]4(O)O[C@@H]([C@@H](O)[C@@]2(N1)[C@@H]4O)[C@]3(O)CO [TTX, tetrodotoxin] | – | kept low | – | – | –
B1 | – | – | high | completely abolished | detected only when blue light was illuminated
B2 | – | – | high | completely abolished | detected only when blue light was illuminated
